Data on ten molecules can be found in US20220017611A1 (INSERM INSTITUTE NATIONAL DE LA SANT ET DE LA RECHERCHE M …, published 2022).

Assay [1] addresses T1, recombinant full-length Tau protein, longest isoform (Tau 2N4R) (human, UniProt P10636-8 1-441, limits assumed, biotinylated with NHS-biotin for SPR; 15N-labelled for NMR). The experiment in a line: cell-based or functional assay.
The target in assay [2] is T1, recombinant full-length Tau protein, …. Briefly: SPR (Biacore T200), single-cycle kinetics, biotinylated Tau on streptavidin chip, VHH injected 0.125-2 µM. The method, then: (§1) Affinity measurements were performed on a BIAcore T200 optical biosensor instrument (GE Healthcare). Recombinant Tau proteins were biotinylated with 5 molar excess of NHS-biotin conjugates (Thermofisher) during 4 hours at 4° C. Capture of biotinylated Tau was performed on a streptavidin SA sensorchip in HBS-EP+ buffer (GE Healthcare). One flow cell was used as a reference to evaluate nonspecific binding and provide background correction. Biotinylated-Tau was injected at a flow-rate of 30 μL/min, until the total amount of captured Tau reached 500 resonance units (RUs). VHHs were injected sequentially with increasing concentrations ranging between 0.125 and 2 μM in a single cycle, with regeneration (3 successive washes of 1M NaCl) between each VHH. On the other hand, VHH Z70 was immobilized on a CMS chip in HBS-EP+ buffer (GE Healthcare) and increasing concentrations, ranging between 0.125 and 2 μM of the SUMO-Tau peptide, were successively injected. Single-Cycle Kinetics (SCK) analysis⁵² was performed to determine association kon and dissociation Koff rate constants by curve fitting of the sensorgrams using the 1:1 Langmuir model of interaction of the BIAevaluation sotware 2.0 (GE Healthcare). Dissociation equilibrium constants (KD) was calculated as kon/Koff.

Assay [3] deals with T2, His-SUMO-Tau peptide Tau[273-318] (human, UniProt O02828 235-280 (Capra hircus entry), not fully specified).
T2 construct: SUMO domain fused at its C-terminus to the Tau peptide [273-318]; also called fused peptide; not shown: The N-terminal HisTag, the SUMO3 domain and any linker from vector pETNKI-HisSUMO3-LIC
T2 peptide: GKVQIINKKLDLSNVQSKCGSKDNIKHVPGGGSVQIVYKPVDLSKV
The experiment in a line: SPR, single-cycle kinetics, VHH Z70 immobilized on the chip, SUMO-Tau[273-318] injected 0.125-2 µM. The method, then:
as §1, with “[…]. […]” for “kon/Koff.”
(In general: Surface plasmon resonance follows binding to a sensor surface in real time, without labels.)

Assay [4] addresses T1, recombinant full-length Tau protein, …. The experiment in a line: SPR (Biacore T200), single-cycle kinetics, biotinylated Tau on streptavidin chip, VHH injected 0.125-2 µM. The method, then:
as §1, with “VHH.” for “VHH. On the other hand, VHH Z70 was immobilized on a CMS chip in HBS-EP+ buffer (GE Healthcare) and increasing concentrations, ranging between 0.125 and 2 μM of the SUMO-Tau peptide, were successively injected.”, “(Kd)” for “(KD)”
The source holds these as a separate data set.

The target is the same in assay [5]. The experiment in a line: SPR, biotinylated Tau on streptavidin chip (the best mutant is Mut1 by Table 4). The method, then: as §1, with “VHH.” for “VHH. On the other hand, VHH Z70 was immobilized on a CMS chip in HBS-EP+ buffer (GE Healthcare) and increasing concentrations, ranging between 0.125 and 2 μM of the SUMO-Tau peptide, were successively injected.”, “(Kd)” for “(KD)”
A mutant library of VHH Z70 has been screened for mutants displaying a stronger affinity in yeast two-hybrid system as described above. 8 mutants were selected and their affinity have been further characterized using SPR experiments.

Positions count from the first letter of the chain named. Names and notes keep the numbering of the source. Read-outs that look alike come from different tables or passages of the source.

T1 sequence (P10636 other isoform, or with tags, fused parts or gaps limits assumed): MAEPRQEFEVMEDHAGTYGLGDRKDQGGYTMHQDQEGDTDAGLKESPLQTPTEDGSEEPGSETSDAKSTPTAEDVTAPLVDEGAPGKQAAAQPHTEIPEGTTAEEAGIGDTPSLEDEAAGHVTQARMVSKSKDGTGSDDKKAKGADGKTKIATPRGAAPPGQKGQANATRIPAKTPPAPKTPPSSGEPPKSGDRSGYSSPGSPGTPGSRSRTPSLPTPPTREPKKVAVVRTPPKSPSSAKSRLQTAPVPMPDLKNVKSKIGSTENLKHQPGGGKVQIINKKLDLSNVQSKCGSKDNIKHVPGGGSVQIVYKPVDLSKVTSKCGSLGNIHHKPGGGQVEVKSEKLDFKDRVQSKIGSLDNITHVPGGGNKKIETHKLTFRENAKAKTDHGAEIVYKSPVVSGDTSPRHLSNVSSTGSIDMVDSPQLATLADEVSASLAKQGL

B1: VHH E4-1 (VHH)
VHH: EVQLQASGGGFVQPGGSLRLSCAASGATSTFDGMGWFRQAPGKEREFVSAISYEQGSYTYYADSVKGRFTISRDNSKNTVYLQMNSLRAEDTATYYCAPAYEGDLYAFDSYWGQGTQVTVSS
notes: Selected from the synthetic Nali-H1 phage library; also called lead VHH E4-1
Regarding B1, in assay [1], the “Thioflavin T fluorescence signal (% of positive control), 1:1 Tau:VHH E4-1 molar ratio” value was 58.3%; the “maximal Thioflavin T fluorescence signal (% of positive control), molar ratio 1:0.25 Tau:VHH E4-1” value worked out at 86.9%; the “time to gain 50% of maximal Thioflavin T signal, 1:1 Tau:VHH E4-1 molar ratio” value was more than 12.8 h; the “time to gain 50% of maximal Thioflavin T signal, molar ratio 1:0.25 Tau:VHH E4-1 (2.5 h for the positive control)” value was approximately 3.8 h. Also, in assay [2], the Kd (as a rule, a measure of binding affinity in units of concentration) came to 345 nM; the dissociation rate constant (koff) (commonly the rate constant with which the complex falls apart) is 0.0017 s⁻¹; the kon (usually the rate constant with which the complex forms) is 4980 M⁻¹ s⁻¹.

B2: VHH Z70 (VHH)
VHH: B1 VHH with G10V, P14S, T79M, W112G
notes: E4-1 with G12V, P16S, T81M and W114G; It may be the form actually produced from pHEN2; also called single domain antibody Z70; optimized VHH Z70
On to B2, for which, in assay [1], the “maximal Thioflavin T fluorescence signal (% of positive control), 1:1 Tau:VHH Z70 molar ratio” value worked out at 4.1%. The dissociation constant (Kd) amounted to 147 nM in assay [2], 85 nM in assay [3] and 147 nM in assay [4]. Also, the off-rate constant (koff) stood at 0.0026 s⁻¹ in assay [2] and 0.00267 s⁻¹ in assay [4]. The kon in assay [2] and in assay [4] was 18100 M⁻¹ s⁻¹ throughout.

B3: VHH Mut1 (VHH)
VHH: B1 VHH with G10V, P14S, T79M, W112G, G113E
notes: Variant of Z70; also called VH Mut1
For the molecule B3, the “fold improvement of KD against VHH Z70” value in assay [5] is more than 6 fold. Besides, in assay [4], the Kd is 22.6 nM, the koff amounted to 0.00242 s⁻¹ and the on-rate (kon) stood at 107000 M⁻¹ s⁻¹.

B4: VHH Mut9 (VHH)
VHH: B1 VHH with G10V, P14S, T79M, P99S, W112G, G113E
notes: Variant of Z70; also called VH Mut9
Consider B4, for which, in assay [4], the Kd is 51 nM, the koff turned out to be 0.00205 s⁻¹ and the kon was 40100 M⁻¹ s⁻¹.

B5: VHH Mut5 (VHH)
VHH: B1 VHH with G10V, P14S, T79M, T94S, W112G
notes: Variant of Z70; also called VH Mut5
Turning to B5, in assay [4], the equilibrium dissociation constant (Kd) came to 80.8 nM, the koff was 0.000883 s⁻¹ and the kon worked out at 10900 M⁻¹ s⁻¹.

B6: VHH Mut20 (VHH)
VHH: B1 VHH with G10V, P14S, R45K, T79M, W112G, G113E
notes: Variant of Z70; also called VH Mut20
Turning to B6, in assay [4], the Kd was 41.8 nM, the off-rate constant (koff) came to 0.00089 s⁻¹ and the on-rate (kon) was 21200 M⁻¹ s⁻¹.

B7: VHH Mut14 (VHH)
VHH: B1 VHH with G10V, P14S, T30I, E54G, T79M, W112G, G113E
notes: Variant of Z70; also called VH Mut14
Take B7: in assay [4], the Kd stood at 74.2 nM, the koff stood at 0.0014 s⁻¹ and the on-rate constant (kon) is 18800 M⁻¹ s⁻¹.

B8: VHH Mut12 (VHH)
VHH: AEVQLQASGGVFVQSGGSLRLCCAASGATSTFDGMGWFRQAPGKEREFVSAISYEQGSYTYYADSVKGRFTISRDNSKNMVYLQMNSLRAEDTATYYCAPAYEGDLYAFDSYGEQGTQVTVSS
notes: Variant of Z70; also called VH Mut12
For the molecule B8, in assay [4], the dissociation constant (Kd) was determined as 61.1 nM, the koff is 0.00207 s⁻¹ and the kon was 33900 M⁻¹ s⁻¹.

B9: VHH Mut3 (VHH)
VHH: B1 VHH with G10V, P14S, R45K, T79M, W112G
notes: Variant of Z70; also called VH Mut3
For the molecule B9, in assay [4], the Kd amounted to 80.5 nM, the off-rate constant (koff) was found to be 0.0021 s⁻¹ and the kon is 26000 M⁻¹ s⁻¹.

B10: VHH Mut15 (VHH)
VHH: B1 VHH with G10V, P14S, T79M, R88G, P99S, W112E
notes: Variant of Z70; also called VH Mut15
As for B10, in assay [4], the Kd was 95.6 nM, the koff was 0.00203 s⁻¹ and the kon came out at 21300 M⁻¹ s⁻¹.
